Measurements from PMC8009439.

How the values were obtained:
[1] = target: pyruvate kinase isoform M2 (PKM2), endogenous in immortalized hepatocytes (human (endogenous in NeHepLxHT)) (UniProt P14618); assay: cross-linking; cell lysate treated with 0.1% glutaraldehyde for 20 minutes at 25°C, stopped with 50 mM Tris pH 8.0, SDS-PAGE and western blot for PKM2; control and LHBS-expressing immortalized hepatocytes, HuH-7 and HepG2 cells infected with Ad-HBV-KO or Ad-HBV-WT
[2] = target: pyruvate kinase isoform M2 (PKM2), endogenous in immortalized hepatocytes (human (endogenous in NeHepLxHT)) (UniProt P14618); assay: glycerol density gradient centrifugation

pyruvate kinase isoform M2 (PKM2), endogenous in immortalized hepatocytes, P14618 1-531 (enzyme; other documents disagree on this pair), sequence (P14618 whole entry, canonical isoform): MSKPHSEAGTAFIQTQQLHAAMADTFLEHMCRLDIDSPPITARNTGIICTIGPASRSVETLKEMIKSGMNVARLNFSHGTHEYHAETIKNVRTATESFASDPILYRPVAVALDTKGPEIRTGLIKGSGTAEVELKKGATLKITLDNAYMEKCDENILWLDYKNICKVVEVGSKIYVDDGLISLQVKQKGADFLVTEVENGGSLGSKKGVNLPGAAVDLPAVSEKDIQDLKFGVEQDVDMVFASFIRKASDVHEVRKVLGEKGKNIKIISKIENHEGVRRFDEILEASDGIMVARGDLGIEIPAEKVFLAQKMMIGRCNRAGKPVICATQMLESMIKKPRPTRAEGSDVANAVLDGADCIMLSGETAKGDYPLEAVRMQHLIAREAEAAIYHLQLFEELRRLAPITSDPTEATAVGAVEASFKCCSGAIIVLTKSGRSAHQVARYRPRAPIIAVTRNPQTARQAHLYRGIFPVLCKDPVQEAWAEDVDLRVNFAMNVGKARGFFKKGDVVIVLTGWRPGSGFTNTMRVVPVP

Q: What does the source list for “pyruvate kinase isoform M2 (PKM2), endogenous in immortalized hepatocytes, P14618 1-531 (enzyme; other documents disagree on this pair)”?
A: stoichiometry N [1]: 2; stoichiometry N [2]: 2
